Data on nine molecules can be found in patent US20220340682A1 (Sanofi, published 2022).

As a reminder, the EC50 is the concentration needed to bring the measured effect to its halfway point. Low values mean greater potency, high ones weaker potency.

Substitutions are numbered along the chain they refer to. Names may count otherwise.

Assay [1] addresses T1, hCEACAM5, human CEACAM5 ECD (35-685) (human, UniProt P06731 35-685).
T1 construct: produced in HEK293; also called human CEACAM5 protein; human CEACAM5 extracellular domain
T1 sequence: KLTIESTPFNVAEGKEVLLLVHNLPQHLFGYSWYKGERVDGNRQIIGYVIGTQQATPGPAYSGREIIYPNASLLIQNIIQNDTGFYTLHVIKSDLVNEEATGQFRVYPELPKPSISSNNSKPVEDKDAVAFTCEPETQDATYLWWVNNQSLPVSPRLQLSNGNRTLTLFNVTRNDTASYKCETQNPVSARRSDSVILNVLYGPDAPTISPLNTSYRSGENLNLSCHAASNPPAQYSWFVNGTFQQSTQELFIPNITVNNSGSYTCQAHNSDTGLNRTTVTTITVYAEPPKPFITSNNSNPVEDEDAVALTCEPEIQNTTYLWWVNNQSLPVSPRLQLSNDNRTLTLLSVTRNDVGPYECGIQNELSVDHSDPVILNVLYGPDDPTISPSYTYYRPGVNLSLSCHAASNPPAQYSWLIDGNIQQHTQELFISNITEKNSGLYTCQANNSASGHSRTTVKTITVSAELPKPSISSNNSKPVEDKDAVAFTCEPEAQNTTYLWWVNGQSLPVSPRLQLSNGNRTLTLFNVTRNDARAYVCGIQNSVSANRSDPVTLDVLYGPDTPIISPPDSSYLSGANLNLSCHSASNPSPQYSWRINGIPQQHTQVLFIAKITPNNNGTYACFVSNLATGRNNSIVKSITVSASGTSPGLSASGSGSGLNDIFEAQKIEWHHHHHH
The assay can be described thus: ELISA, chimeric mAb. In general terms: An ELISA detects its analyte on a solid surface through an enzyme-linked reagent.

In assay [2] the target is T2, cCEACAM5, M. fascicularis CEACAM5 ECD (35-688) (Macaca fascicularis).
T2 construct: ECD followed by a 24 amino acid extension containing a His-Tag; also called cynomolgus CEACAM5; monkey CEACAM5
T2 chain: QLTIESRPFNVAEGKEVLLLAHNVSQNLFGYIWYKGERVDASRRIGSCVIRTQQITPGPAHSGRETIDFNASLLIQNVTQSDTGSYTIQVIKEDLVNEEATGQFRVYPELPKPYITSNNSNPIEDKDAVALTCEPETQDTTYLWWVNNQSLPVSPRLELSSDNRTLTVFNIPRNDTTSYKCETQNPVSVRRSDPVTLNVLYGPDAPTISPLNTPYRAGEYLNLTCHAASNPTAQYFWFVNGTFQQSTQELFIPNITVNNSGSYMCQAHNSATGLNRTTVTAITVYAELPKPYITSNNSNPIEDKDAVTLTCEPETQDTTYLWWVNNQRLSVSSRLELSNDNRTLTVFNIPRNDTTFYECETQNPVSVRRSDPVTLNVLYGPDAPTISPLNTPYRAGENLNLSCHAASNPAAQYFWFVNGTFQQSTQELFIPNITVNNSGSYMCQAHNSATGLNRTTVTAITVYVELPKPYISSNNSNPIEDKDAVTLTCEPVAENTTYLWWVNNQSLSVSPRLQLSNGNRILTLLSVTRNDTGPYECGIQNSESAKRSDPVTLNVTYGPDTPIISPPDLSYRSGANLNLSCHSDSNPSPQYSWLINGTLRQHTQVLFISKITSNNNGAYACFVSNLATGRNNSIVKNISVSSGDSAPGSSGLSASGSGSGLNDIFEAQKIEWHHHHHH
The assay can be described thus: ELISA, chimeric mAb.

The target in assay [3] is T1, hCEACAM5, human CEACAM5 ECD (35-685). The assay can be described thus: ELISA, coated CEACAM5. The method, then:
(§1) All CEACAM5-specific mAbs were assessed for their ability to bind human and primate CEACAM5 protein by ELISA. Plates were coated with human or primate CEACAM5 protein, anti-hCEACAM5 mAbs were added to the plate and detected with rabbit anti-mouse IgG conjugated with horseradish peroxidase (Sigma; # A9044). The antibody binding was visualized by adding TMB-H2O2 buffer and read at a wavelength of 450 nm.

Assay [4] concerns the target T2, cCEACAM5, M. fascicularis CEACAM5 ECD …. The assay can be described thus: ELISA, coated CEACAM5. The method, then: as §1
Assay [5] addresses T3, human CEACAM5 expressed on the surface of tumor cells (human, UniProt P06731 35-685).
T3 construct: Endogenous CEACAM5 of human tumor cells; also called hCEACAM5 on MKN45 cells; CEACAM5 on CR-IGR-034P primary colon tumor cells
T3 sequence: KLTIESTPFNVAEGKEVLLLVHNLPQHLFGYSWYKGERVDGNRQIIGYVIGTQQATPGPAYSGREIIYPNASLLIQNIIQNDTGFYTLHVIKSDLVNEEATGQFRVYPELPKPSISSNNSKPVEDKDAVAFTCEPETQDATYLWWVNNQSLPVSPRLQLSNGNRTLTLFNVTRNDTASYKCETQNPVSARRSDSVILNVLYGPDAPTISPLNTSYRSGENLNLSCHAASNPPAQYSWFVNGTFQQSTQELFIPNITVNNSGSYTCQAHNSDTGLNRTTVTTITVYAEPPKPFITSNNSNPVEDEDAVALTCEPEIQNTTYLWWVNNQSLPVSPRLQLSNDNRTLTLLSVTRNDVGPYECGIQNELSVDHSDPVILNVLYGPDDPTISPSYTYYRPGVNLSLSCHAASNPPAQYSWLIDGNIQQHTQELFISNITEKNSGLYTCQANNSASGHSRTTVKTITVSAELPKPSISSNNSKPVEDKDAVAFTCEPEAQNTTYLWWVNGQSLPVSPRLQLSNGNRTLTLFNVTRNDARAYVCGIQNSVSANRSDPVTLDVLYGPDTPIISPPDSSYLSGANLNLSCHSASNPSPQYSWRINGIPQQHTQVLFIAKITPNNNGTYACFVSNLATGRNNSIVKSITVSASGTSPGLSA
Put plainly: flow cytometry on CR-IGR-034P primary colon tumor cells. The method, then:
(§2) Advanced human primary colon tumor CR-IGR-034P (Julien et al., Clin Cancer Res Oct. 1, 2012 18:5314-5328) was obtained from Patient-derived xenograft in mice. Tumor CR-IGR-034P was enzymatically dissociated using collagenase Type IV (Invitrogen; #17104-019) and deoxyribonuclease I (Invitrogen; #18047-019) for 1 h at […], Cell viability was estimated by Viacount application using Guava® easyCyte™ 8HT Flow Cytometry System. […] 100 μL/well of goat anti-mouse IgG conjugated with Alexa647 (Invitrogen; # A2135) or goat anti-human IgG conjugated with Alexa488 (Invitrogen; # A11013) was added for 45 min at 4° C. and washed three times with PBS 1% BSA. The antibody binding was evaluated after centrifugation and resuspension of cells by adding 200 pliwell PBS 1% BSA and read using Guava® easyCyte™ 8HT Flow Cytometry System. Apparent KD and EC50 values were estimated using BIOST@T-BINDING and BIOST@T-SPEED softwares, respectively.

Assay [6] addresses T3, human CEACAM5 expressed on the surface …. The assay can be described thus: apparent KD, flow cytometry on CR-IGR-034P primary colon tumor cells. The protocol: as §2
Assay [7] has as its target T1, hCEACAM5, human CEACAM5 ECD (35-685). The assay can be described thus: SPR (Biacore T200), IgG captured by anti-human Fc, antigen injected at 50 nM; % Rmax reached. The protocol: (§3) To evaluate impact of these modifications, IgGs binding was determined by measuring SPR signals with a Biacore T200 unit (GE Healthcare). Anti-human Fc antibodies were coupled to a Series S CM5 chip via amine coupling kit to reach a level of 10,000 response units (RU). Approximately 300 to 600 RU of each variant were captured by injecting supernatants at 1 μg/mL with a contact time of 60 seconds and a flow rate of 10 μL/min. All experiments were performed at 25° C. with HBS-EP+(10 mM Hepes, 150 mM NaCl, 3 mM EDTA, 0.05% surfactant P20) as the running buffer. In a screening mode, the human CEACAM5 cynomolgus CEACAM5/human A3B3 domain was injected at 50 nM over the captured IgG variants at a flow rate of 30 μLimin for 1 minute. A dissociation phase of 60 seconds was held before the surface was regenerated with 1 pulse injection of 3 M MgCl₂ at a flow rate of 10 μLiminute and a contact time of 30 seconds.
(§4) For each experiment, response data were processed using a reference surface, thereby allowing correction for bulk refractive index changes and any non-specific binding. Data were double referenced using response from blank injections. According to the screening method described in an application note from GE Healthcare (Application note 28-9777-72 AA), two parameters were considered to rank the variants with respect to binding characteristics. First, the binding activity is estimated by the proportion of the theoretical maximum signal measured (percentage of Rmax, see FIG. 16). Second, the percentage of remaining signal is calculated using dissociation report points (the first one 10 seconds after the end of the injection and the second one 50 seconds after the end of injection) and reflects the stability of binding (see FIG. 17).
In general terms: In SPR one partner is held on a chip, and binding of the other changes the refractive index at the surface.

In assay [8] the target is T2, cCEACAM5, M. fascicularis CEACAM5 ECD …. The description is as above. The method, then: as §3, §4

B1: chMab2K52R (antibody, human IgG1, kappa, V domains shown)
VH: EVQLQESGGVLVKPGGSLKLSCAASGFVFSSYDMSWVRQTPEKRLEWVAYISSGGGITYFPDTVQGRFTVSRDNAKNTLYLQMNSLKSEDTAIYYCAAHYFGSSGPFAYWGQGTLVTVSA
VL: DIQMTQSPASLSASVGETVTITCRASENIFSYLAWYQQKQGKSPQLLVYNTRTLAEGVPSRFSGSGSGTQFSLKINSLQPEDFGSYYCQHHYGTPFTFGSGTKLEIKR
notes: Chimeric MAb2 with K52R in CDR2-L
As for B1, the EC50 in assay [1] worked out at 0.11 nM; in assay [2] it was 0.15 nM.

B2: chMAb4 (antibody, human IgG1, kappa, V domains shown)
VH: EVQLVESGGGLVKPGGSLKLSCAASGFTFSSYDMSWVRQTPEKRLEWVAFISSYGGRTYYADTVKGRFTISRDNAKNTLYLQMSSLKSEDTAMFYCAAHYFGTSGPFAYWGQGTLVTVSA
VL: B1 VL with F30Y, L33F, T51A, R52K, T53I, S85T, T94I, I106L
notes: Chimeric, human IgG1 / Ckappa
B2: the figures for the EC50 in assay [1] and in assay [2] were 0.14 nM and 0.12 nM, respectively.

B3: chMAb5 (antibody, human IgG1, kappa, V domains shown)
VH: ELQLVESGGVLVKPGGSLKLSCAASGFAFSSYDMSWVRQTPEKRLEWVTYINSGGGITYYPDTVKGRFTISRDNARNTLYLQMSSLKSEDTAIYYCTAHYFGSSGPFAYWGQGTLVTVSA
VL: B1 VL with F30Y, T51A, R52K, A55T
notes: Chimeric, human IgG1 / Ckappa
As to B3, the EC50 in assay [1] turned out to be 0.18 nM; in assay [2], 0.13 nM.

B4: antibody MAb2 (antibody, mouse IgG1, V domains shown)
VH: B1 VH
VL: DIQMTQSPASLSASVGETVTITCRASENIFSYLAWYQQKQGKSPQLLVYNTKTLAEGVPSRFSGSGSGTQFSLKINSLQPEDFGSYYCQHHYGTPFTFGSGTKLEIK
notes: Murine IgG1, kappa; Rows are tied to the label as printed
Consider B4, for which the values for the concentration giving a half-maximal response (EC50) in assay [3], in assay [4] and in assay [5] were 0.14 nM, 0.07 nM and 0.53 nM, respectively. The “Ratio c/h (EC50 on cCEACAM5 against EC50 on hCEACAM5)” value in assay [4] is 0.5. Also, the Kd in assay [6] amounted to 0.38 nM.

B5: chMAb1 (antibody, human IgG1, kappa, V domains shown)
VH: EVMLVESGGGLVKPGGSLKLSCAASGFTFSSYAMSWVRQTPEKRLEWVATISSGGSYIYYLDSVKGRFTISRDNAKNTLYLQMSSLRSEDTAMYYCARPAYYGNPAMDYWGQGTSVTVSS
VL: DILMTQSQKFMSTSVGDRVSVTCKASQNVGTNVAWYQQKPGQSPKPLIYSASYRYSGVPDRFTGSGSGTDFTLTISNVQSEDLAEYFCQQYNSYPLYTFGGGTKLEIKR
notes: Chimeric, human IgG1 / Ckappa
B5: the results for the concentration for a half-maximal effect (EC50) in assay [1] and in assay [2] were 0.51 nM and 1.57 nM, respectively.

B6: LC_S31A-HC_G54Y (antibody, V domains shown)
VH: EVQLVESGGGLVQPGGSLRLSCAASGFVFSSYDMSWVRQAPGKGLEWVSYISSYGGITYYADSVKGRFTISRDNSKNTLYLQMNSLRAEDTAVYYCAAHYFGSSGPFAYWGQGTLVTVSS
VL: DIQMTQSPSSLSASVGDRVTITCRASENIFAYLAWYQQKPGKAPKLLIYNTRTLQSGVPSRFSGSGSGTDFTLTISSLQPEDFATYYCQHHYGTPFTFGQGTKLEIK
notes: combination variant of MAb2_VLg5VHg2
For the molecule B6, the binding result in assay [7] and in assay [8] was “binds” throughout.

B7: LC_T94A (antibody, V domains shown)
VH: B6 VH with Y54G
VL: B6 VL with A31S, T94A
notes: variant of MAb2_VLg5VHg2
Regarding B7, the binding result in assay [7] is recorded as “binds”.

B8: LC_T51A-T94A (antibody, V domains shown)
VH: B6 VH with Y54G
VL: B6 VL with A31S, T51A, T94A
notes: as for B6
For B8, the binding result in assay [7] and in assay [8] was “binds” in each case.

B9: LC_T53I-HC_S53A (antibody, V domains shown)
VH: B6 VH with S53A, Y54G
VL: B6 VL with A31S, T53I
notes: as for B6
In the case of B9, the binding result in assay [7] and in assay [8] was “binds” in each case.
